In this assay the target is T1, 人胃蛋白酶原II HPGII (fitzgerald, 30R-AP039) (human, UniProt P20142 17-388).
T1 construct: Bought antigen; also called PGⅡ; PGC
T1 sequence (looked up): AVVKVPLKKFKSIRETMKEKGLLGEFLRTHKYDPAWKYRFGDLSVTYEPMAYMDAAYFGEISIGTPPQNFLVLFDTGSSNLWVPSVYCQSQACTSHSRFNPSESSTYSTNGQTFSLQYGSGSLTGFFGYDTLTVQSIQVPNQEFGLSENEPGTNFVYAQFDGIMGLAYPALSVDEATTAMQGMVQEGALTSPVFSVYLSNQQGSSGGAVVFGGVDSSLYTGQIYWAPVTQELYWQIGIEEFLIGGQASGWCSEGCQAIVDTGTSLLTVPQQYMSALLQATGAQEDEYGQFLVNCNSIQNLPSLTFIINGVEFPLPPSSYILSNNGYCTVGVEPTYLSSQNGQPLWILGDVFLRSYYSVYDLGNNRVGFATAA
The experiment in a line: BLI, AMC sensor, antibody immobilised, HPGII in solution. A general note: BLI is a label-free optical method that tracks binding on a fibre tip over time.

The Kd is the free concentration of one partner at which half of the binding sites on the other are occupied at equilibrium, for simple one-to-one binding. Lower therefore signals higher affinity. In general, koff refers to a measure of how fast the partners let go of each other. A lower koff goes with a long-lived complex. A word on the kon: it is the second-order rate constant of association.

B1: Anti-HPG II 11C2 重组抗体 (WT) (antibody, V domains shown)
VH: QIQLVQSGPELKKPGETVKISCKASGYSFTQHGMNWVKQAPGKGLKWMGWINSFTAQPTFADDFRGRFAFSLETSASTAYLQINNLKNEDMATYFCARRGENYIYYYAMDYWGQGTSVTVSS
VL: DVVVTQTPLSLPVSFGDQVSISCRSNQSIAQSYGNTYLSWYLHKPGQSPQLLIYGLSQRFSGVPDRFSGSGSGTDFTLKISTIKPEDLGMYYCLNGSHQPWTFGGGTKLEIK
The molecule B1 gave a Kd of 5.15 nM, a koff of 0.00181 s⁻¹ and a kon of 351000 M⁻¹ s⁻¹.

The record behind these values is CN111217911A (DONGGUAN PENGZHI BIO TECH CO LTD, dated 2020).
